Consider 1 substance from article PMC4881466.

For orientation: pKa means the negative logarithm of the acid dissociation constant.

The target in the data set is Lys69 (UniProt position 69, KALAVKVFKMT). Nature of the data set: UV-vis. Conditions: not stated (100 mM buffers); 100 mM sodium phosphate/citrate (pH 4-6), sodium phosphate (pH 6.2-8.6), sodium carbonate (pH > 8.6); ferrous-deoxy, no exogenous ligand.

The substance “Non-symbiotic hemoglobin 2 (AHb2) H66L mutant (Arabidopsis thaliana; H66L)” yielded a pKa of 10 ± 0.2.
